According to the RNAGym collection of RNA variant scans (doi:10.1093/molbev/msab373):

B1: Azoarcus group I ribozyme (parent)
chain: GUGCCUUGCGCCGGGAAACCACGCAAGGGAUGGUGUCAAAUUCGGCGAAACCUAAGCGCCCGCCCGGGCGUAUGGCAACGCCGAGCCAAGCUUCGGCGCCUGCGCCGAUGAAGGUGUAGAGACUAGACGGCACCCACCUAAGGCAAACGCUAUGGUGAAGGCAUAGUCCAGGGAGUGGCGAAAGUCACACAAACCGG

Variants of: B1
Experiment: reverse-splicing fitness (ratio to wild type); higher = more active; in vitro selection; Mg2+ level not given
Outline: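 An in vitro group I ribozyme library with randomized positions was T7-transcribed and gel-purified. In triplicate, 10 pmol RNA in EPPS pH 7.5 was reacted with 50 pmoles of a 30-nt RNA substrate for 1 h at 37 °C across several added MgCl2 levels (1–48 mM), then stopped with EDTA. Products were reverse transcribed from a substrate-complementary primer, PCR-amplified and sequenced (HiSeq 4000). Fitness is a variant's read proportion after selection over that before, normalised to wild type.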

| Variant | reverse-splicing fitness |
| --- | --- |
| C82G A111G A120C A145G C150G C169A | 0.00978 |
| C82G A111G A120C A145G C150G C169G | 0.00764 |
| C82G A111G A120C A145U C150A C169A | 0.0104 |
| C82G A111G A120C A145U C150A C169G | 0.00822 |
| C82G A111G A120C A145U C150A C169U | 0.00952 |
| C82G A111G A120C A145G C169U U176A | 0.0142 |
| C82G A111G A120C A145G C169U U176C | 0.0147 |
| C82G A111G A120C A145G C169U U176G | 0.00492 |
| C82G A111G A120C A145G C150U | 0.0625 |
| C82G A111G A120C A145G C150A | 0.0184 |
| C82G A111G A120C A145G C150G | 0.0123 |
| C82G A111G A120C A145G C150G C169U U176G | 0.00784 |
| C82G A111G A120C A145G C150G C169U U176A | 0.0118 |
| C82G A111G A120C A145G C150G C169U U176C | 0.0142 |
| C82G A111C C150U U176A | 0.0699 |
| C82G A111C C150U U176G | 0.0217 |
| C82G A111C C150U U176C | 0.0801 |
| C82G A111C A145G | 0.289 |
| C82G A111C A145U | 0.283 |
| C82G A111C A145U C150G C169U | 0.00891 |
| C82G A111C A145U C150G C169G | 0.0063 |

| Variant | reverse-splicing fitness |
| --- | --- |
| C82G A111C A145U C150G C169A | 0.00796 |
| C82G A111C C150A C169U U176G | 0.0093 |
| C82G A111C C150A C169U U176A | 0.0193 |
| C82G A111C C150A C169U U176C | 0.0178 |
| C82G A111G A120C A145C C150G C169U | 0.00968 |
| C82G A111G A120C A145C C150G C169G | 0.00805 |
| C82G A111G A120C A145C C150G C169A | 0.00872 |
| C82G A111C A145U C150G U176G | 0.0052 |
| C82G A111C A145U C150G U176C | 0.0214 |
| C82G A111C A145U C150G U176A | 0.0124 |
| C82G A111C C169A U176A | 0.0198 |
| C82G A111C C169A U176C | 0.023 |
| C82G A111C C169A U176G | 0.00611 |
| C82G A111G A120C A145G C150G C169A U176C | 0.0151 |
| C82G A111G A120C A145G C150G C169A U176G | 0.0091 |
| C82G A111G A120C A145G C150G C169A U176A | 0.0153 |
| C82G A111C A145G C150A U176C | 0.0396 |
| C82G A111C A145G C150A U176G | 0.0116 |
| C82G A111C A145G C150A U176A | 0.0244 |
| C82G A111C C150U C169G | 0.00815 |
| C82G A111C C150U C169U | 0.0125 |

| Variant | reverse-splicing fitness |
| --- | --- |
| C82G A111C C150U C169A | 0.0113 |
| C82G A111G A120C A145G C150U C169G U176G | 0.00597 |
| C82G A111G A120C A145G C150U C169G U176C | 0.0192 |
| C82G A111G A120C A145G C150U C169G U176A | 0.0174 |
| C82G A111C A145G C150U U176A | 0.0896 |
| C82G A111C A145G C150U U176C | 0.11 |
| C82G A111C A145G C150U U176G | 0.0306 |
| C82G A111C A145G C150G C169A U176C | 0.0129 |
| C82G A111C A145G C150G C169A U176A | 0.0115 |
| C82G A111C A145G C150G C169A U176G | 0.00829 |
| C82G A111G A120C A145G C169A U176G | 0.00503 |
| C82G A111G A120C A145G C169A U176C | 0.0188 |
| C82G A111G A120C A145G C169A U176A | 0.0151 |
| C82G A111C A145U C150G C169A U176G | 0.00734 |
| C82G A111C A145U C150G C169A U176A | 0.00956 |
| C82G A111C A145U C150G C169A U176C | 0.0126 |
| C82G A111C A145G C150A | 0.0364 |
| C82G A111C A145G C150G | 0.0266 |
| C82G A111C A145G C150U | 0.205 |
| C82G A111G A120C A145C C150A U176G | 0.00662 |
| C82G A111G A120C A145C C150A U176C | 0.0111 |

| Variant | reverse-splicing fitness |
| --- | --- |
| C82G A111G A120C A145C C150A U176A | 0.0112 |
| C82G A111G A120C A145C C150A C169U U176G | 0.00668 |
| C82G A111G A120C A145C C150A C169U U176C | 0.0126 |
| C82G A111G A120C A145C C150A C169U U176A | 0.0148 |
| C82G A111G A120C A145G C150A C169G U176G | 0.00696 |
| C82G A111G A120C A145G C150A C169G U176A | 0.02 |
| C82G A111G A120C A145G C150A C169G U176C | 0.0237 |
| C82G A111C A145U C169G | 0.0102 |
| C82G A111C A145U C169U | 0.0133 |
| C82G A111C A145U C169A | 0.00813 |
| C82G A111G A120C A145G C150U C169U | 0.016 |
| C82G A111G A120C A145G C150U C169G | 0.00893 |
| C82G A111G A120C A145G C150U C169A | 0.0104 |
| C82G A111C A145G C169A U176C | 0.0311 |
| C82G A111C A145G C169A U176A | 0.0222 |
| C82G A111C A145G C169A U176G | 0.00852 |
| C82G A111C C150A C169A U176A | 0.0183 |
| C82G A111C C150A C169A U176C | 0.0158 |
| C82G A111C C150A C169A U176G | 0.00921 |
| C82G A111C C150G | 0.0174 |
| C82G A111C C150U | 0.143 |
